Assay [1] deals with human cytoplasmic dynein (recombinant complex of DHC, DIC, DLIC, Tctex, Robl and LC8) (human) (UniProt Q14204).
Assay [2] addresses dynactin (bovine (purified from bovine brain)).

Processive run length of DDB^CC1 on microtubules, single molecule TIRF and speed of DDB^CC1 on microtubules, single molecule TIRF data for one substance are collected here from publication doi:10.1101/776187.

On to “Drosophila BicD-coiled-coil domain 1 (truncated N-terminal fragment of Dm BicD) (domain or fragment)”, for which, in assay [1], the processive run length of DDB^CC1 on microtubules, single molecule TIRF is 2.8 µm and the speed of DDB^CC1 on microtubules, single molecule TIRF was 0.41 µm/s. In assay [2], the processive run length of DDB^CC1 on microtubules, single molecule TIRF came to 2.8 µm and the speed of DDB^CC1 on microtubules, single molecule TIRF stood at 0.41 µm/s.
